# ± gives the uncertainty stated by the source.
# Assay: amyloid nucleation score (Sup35N fusion, yeast selection) (log enrichment); library NNK3; higher = more nucleation; inactive = no reads after selection
# How it was run: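 Output and input plasmid inserts were sequenced by Illumina after psi-negative yeast carrying Sup35N fused to peptides of 20 random codons had been induced 24 hours with 100 μM copper sulfate and grown 7 days at 30°C on medium lacking adenine and uracil. The nucleation score is the DiMSum log enrichment of output over input reads, centred on the mode score of non-aggregating sequences. Sequences with under 100 input reads were excluded.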
row,Substance,amyloid nucleation score
1,FHLLPKMCLLLSTLIRSGIT,inactive
2,SVVIYWIWNCL,3.09 ± 0.068
3,TFFWLLCN,inactive
4,VNWSSFIFESTSIFS,0.476 ± 0.28
5,WLTYYIDFRVILSFQSVRDY,inactive
6,YDLVIGCVMNVLFVLRCATR,inactive
7,WRRGFVNSRGYNLRFWGHYF,inactive
8,YYDCIALFNSKQGSYLHYWY,inactive
9,DNDQNGVREVERGVLTLSSV,inactive
10,IMSRCKNSYASLATVSCRSL,inactive
11,VTMFDLVSM,inactive
12,CCGVLQRMKISQKVN,inactive
13,SVTWSHFGNWVRGAGLVMHR,0.259 ± 0.39
14,WNPYAIARKAIVRGSVKWGV,inactive
15,DYNSCCSEREVGKKEYTKNN,inactive
16,LFNGFVDTMESIVSFDNTSY,inactive
17,VVSTNVYGGLTMASYCGALP,1.24 ± 0.16
18,SSLGWFQVSHFRYWNRRCGL,inactive
19,SGRVSTDEKLVKFLRN,inactive
20,VLKESMLGISLLMGTLRW,0.2 ± 0.56
21,IRVMA,inactive
22,RSCVLMVASVSNRNRPGDVS,inactive
23,RFRKG,inactive
24,NIILCCAKVFKPYMSTMTTP,1.98 ± 0.061
25,FSREYP,inactive
26,FMMEACSSDKGEQSMGSWIE,-0.32 ± 0.78
27,GMNYNKMRTVLSRAPPRVRS,inactive

row,Substance,amyloid nucleation score
1,WGDDGNTFYE,inactive
2,IGMYNEGFGMVLMTCPRLFF,2.09 ± 0.077
3,GQDRYLLAAYK,inactive
4,LSSFLLFLAELCWVLKQRMC,inactive
5,RRPSQRLLGHIKVLWRNTTI,inactive
6,RSRKVNWCSLFVVVSHVGWK,inactive
7,KRSDVYVGKNCSEDMRFSNL,inactive
8,FVKCFNGAFWNEGPFCYLCG,0.331 ± 0.32
9,HNGARG,inactive
10,LKVCNISDWFNIACSVMSFH,1.93 ± 0.086
11,LVGMDTGIVNDSIDGPGYWV,inactive
12,VITIAIELLGVLFVCIGTIV,inactive
13,SEDLRETWGSSA,-0.377 ± 0.98
14,CKVSAL,inactive
15,VYSLE,inactive
16,VPGCA,-0.075 ± 1.1
17,RVRNSCSVIGMWMLVYSRMI,inactive
18,VNKFNFNIVIFSNWNMYQ,3.36 ± 0.062
19,LHAWAVVLGFLETP,inactive
20,SFKAWIWSSMIAVGLTQRYS,inactive
21,YYVFVYLYSCVCFTGTGKSV,inactive
22,RLIYLWVPYCNMCRCGLLCK,inactive
23,DNKLDNRYLGYRFRCTTFHF,inactive
24,CMLSPV,inactive
25,LHFGDMLLVCNTFFELRVLH,1.73 ± 0.08
26,RSKWRCRTLVDWRLQV,inactive
27,YFVALVS,inactive

row,Substance,amyloid nucleation score
1,SITRELGNETLYSLLGPRAF,inactive
2,MHNHMYISKEMLYNERTLSI,inactive
3,APRGVSTDLDAVHRWYYSGR,-0.025 ± 0.88
4,TLLPAVQIWHDIKHSTRTSW,inactive
5,SMSNQSSTFDSLLFRQWLVV,inactive
6,REGFVIIVLTWLMDSQYST,inactive
7,MRFADFCRGYFRRGSYPLGF,inactive
8,ASGFLYSSSHLERNKLVNKF,inactive
9,MYEVVRVKYMVAQQFNISSE,inactive
10,NGTLSYCPDKELSTLVFLHY,inactive
11,YLMNVLFAYVD,inactive
12,CVGGSVFVACMLRSRVWGWC,inactive
13,IRRRLEMLNTSLYSHI,inactive
14,ISFLADYRQPSVKFVGGYVM,inactive
15,SLPWVIF,inactive
16,INMNDSINGS,0.231 ± 0.62
17,HLMTQMATRRL,inactive
18,SLGSVVTSFASEMWTADGTR,inactive
19,IRTFIIQADSSVVPIKVFYR,1.55 ± 0.099
20,PVLWPLFKYVCFLTW,inactive
21,LVTETLFYCH,inactive
22,FSGVLLNVYYGIHYTISIYR,inactive
23,VGCLGGRSTSSRWSSLRLLV,inactive
24,DIVIFVEVNHWFLMGMSHKT,0.999 ± 0.088
25,VKPSLF,-0.567 ± 1
26,MVRFMLFMK,inactive
